According to paper PMC6383945, “Elk1 affects katanin and spastin proteins via differential transcriptional and post-transcriptional regulations”:

T1: Elk1-db (ETS DNA-binding domain) (Homo sapiens, UniProt P19419 1-96)
T1 sequence: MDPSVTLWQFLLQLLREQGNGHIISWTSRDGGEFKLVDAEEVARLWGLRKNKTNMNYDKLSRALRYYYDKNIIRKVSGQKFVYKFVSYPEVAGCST

B1: KATNA1 Promoter_Mut (dsDNA)
DNA 1: AGGGTGGAGATTGAGACCAAGAAGGACCCTGTGCAGTACATAT
DNA 2: ATATGTACTGCACAGGGTCCTTCTTGGTCTCAATCTCCACCCT
B2: KATNA1 UTR2_WT (+253/+262) (dsDNA)
DNA 1: GACTGGGTCAGGCCCTCCTTCCTCGCTGCCGGGATCTCCACTC
DNA 2: GAGTGGAGATCCCGGCAGCGAGGAAGGAGGGCCTGACCCAGTC
B3: KATNA1 UTR1_Mut (dsDNA)
DNA 1: CGAGGTCGTCCCCGGTGTTAAGGATGACCCTGGCGGGTTTGT
DNA 2: ACAAACCCGCCAGGGTCATCCTTAACACCGGGGACGACCTCG
B4: KATNA1 Promoter_WT (-428/-419) (dsDNA)
DNA 1: AGGGTGGAGATTGAGACTGGAGGAAGCCCTGTGCAGTACATAT
DNA 2: ATATGTACTGCACAGGGCTTCCTCCAGTCTCAATCTCCACCCT
B5: KATNA1 UTR1_WT (+113/+122) (dsDNA)
DNA 1: CGAGGTCGTCCCCGGCACCGGAAGTGACCCTGGCGGGTTTGT
DNA 2: ACAAACCCGCCAGGGTCACTTCCGGTGCCGGGGACGACCTCG
B6: KATNA1 UTR2_Mut (dsDNA)
DNA 1: GACTGGGTCAGGCCCTCTCCTTCTATTGCCGGGATCTCCACTC
DNA 2: GAGTGGAGATCCCGGCAATAGAAGGAGAGGGCCTGACCCAGTC

Target: T1, Elk1-db (ETS DNA-binding domain)
Test: EMSA; 10 mM Tris pH 7.5, 50 mM KCl, 1 mM DTT, 1 ug poly(dI-dC), 5% glycerol, 1 mM EDTA, 0.3% BSA, protease inhibitors; 20 fmol probe, 300 ng Elk1-db; 20 min room temperature; 6% native PAGE in 0.5X TBE at 4 C
Conditions: protein: recombinant; tags: 6xHis; label: 3' biotin on both strands; blunt before labelling

Row | Binder | binding result
1 | B1 | no binding
2 | B2 | no binding
3 | B3 | no binding
4 | B4 | no binding
5 | B5 | binds
6 | B6 | no binding
